The values below come from US7659073 (HYBRITECH, dated 2010).

The target in assay [1] is T1, α1-antichymotrypsin (ACT) (UniProt P01011 24-423).
T1 sequence (looked up): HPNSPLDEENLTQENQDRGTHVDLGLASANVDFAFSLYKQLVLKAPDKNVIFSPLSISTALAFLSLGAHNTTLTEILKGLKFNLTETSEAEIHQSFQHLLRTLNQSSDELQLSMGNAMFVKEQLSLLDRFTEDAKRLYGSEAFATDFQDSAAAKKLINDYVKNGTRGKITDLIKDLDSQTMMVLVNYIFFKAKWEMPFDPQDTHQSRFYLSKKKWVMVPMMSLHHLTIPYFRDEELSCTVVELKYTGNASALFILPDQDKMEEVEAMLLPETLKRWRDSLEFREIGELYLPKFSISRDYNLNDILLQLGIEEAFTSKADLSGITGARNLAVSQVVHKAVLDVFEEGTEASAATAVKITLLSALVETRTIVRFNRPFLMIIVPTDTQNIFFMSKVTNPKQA
Put plainly: incubation with ACT, HIC-HPLC profile.

Assay [2] deals with T1, α1-antichymotrypsin (ACT). The assay can be described thus: incubation with ACT for two hours at 37° C., HIC-HPLC profile. The method, then:
High performance hydrophobic interaction chromatography (HIC-HPLC) was performed using a polypropylaspartamide column (PolyLC, distributed by Western Analytical, Temecula, Calif.). The column was 4.6×250 mm in length with a 1000 Å pore size. Samples were applied in 1.5 M ammonium sulfate and eluted with a gradient: Buffer A: 1.2 M sodium sulfate, 25 mM sodium phosphate, pH 6.3, and Buffer B: 50 mM sodium phosphate, 5% v/v 2-propanol. The gradient was […], 1 min, 30-80% B, 12 min, then isocratic at 80% B for 2 min before equilibration in Buffer A. High sensitivity peak detection was obtained with a Varian Model 9070 scanning fluorescence detector using an excitation of 232 nm and emission of 334 nm to detect the tryptophan residues in protein.
To confirm that the pro forms of PSA are not reactive with ACT, a mixture of purified mature PSA, [−4]pPSA and [−7, −5]pPSA, were incubated with ACT. […] Only the mature PSA forms an ACT complex.

B1: [-4]pPSA (enzyme)
chain: not shown
notes: Recombinant from AV12 cells; also found in pooled prostate cancer serum; also called [-4]proPSA
Regarding B1, the binding result in assay [1] is recorded as “no binding (tested: 4× excess of ACT)”.

B2: [-5]pPSA (enzyme)
chain: not shown
notes: Not resolved from [-7]pPSA by HIC-HPLC; tested as an about equal mixture with [-7]pPSA; also called [-5]proPSA; part of the [-5/-7]pPSA peak
As to B2, the binding result in assay [1] is reported as “no binding (tested: 4× excess of ACT)”.

B3: [-7]pPSA (enzyme)
chain: not shown
notes: The purified peak holds about equal levels of [-7]pPSA and [-5]pPSA, which are not resolved from each other; also called [-7]proPSA; full length [-7]pPSA
Take B3: the binding result in assay [2] is on record as “no binding”.

B4: [-2]pPSA (enzyme)
chain: not shown
notes: It is mature PSA preceded by the leader SR; also called [-2]proPSA
As for B4, the binding result in assay [1] is “no binding (tested: 4× excess of ACT)”.
